Assay results as given in IntAct's records for PubMed 8840966.

B1: Cyclin-dependent kinase 4 inhibitor C (Homo sapiens), P42773 (parent)
chain: MAEPWGNELASAAARGDLEQLTSLLQNNVNVNAQNGFGRTALQVMKLGNPEIARRLLLRGANPDLKDRTGFAVIHDAARAGFLDTLQTLLEFQADVNIEDNEGNLPLHLAAKEGHLRVVEFLVKHTASNVGHRNHKGDTACDLARLYGRNEVVSLMQANGAGGATNLQ

Variants of: B1
Settings: with cdk6_human CDK6, Q00534
Sequence of cdk6_human CDK6, Q00534 (Q00534 whole entry): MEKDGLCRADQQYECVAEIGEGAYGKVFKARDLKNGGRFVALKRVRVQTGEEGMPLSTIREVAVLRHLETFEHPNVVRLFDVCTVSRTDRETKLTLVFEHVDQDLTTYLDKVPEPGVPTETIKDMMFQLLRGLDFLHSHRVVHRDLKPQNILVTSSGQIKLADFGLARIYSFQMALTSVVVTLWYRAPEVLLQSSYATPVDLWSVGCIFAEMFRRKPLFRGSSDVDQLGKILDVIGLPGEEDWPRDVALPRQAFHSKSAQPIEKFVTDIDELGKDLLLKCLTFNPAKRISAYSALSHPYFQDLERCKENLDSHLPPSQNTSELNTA

effect of a mutation on the interaction	Variant
disrupting interaction	MAEPWGNELASAAARGDLEQLTSLLQNNVNVNAQNGFGRTALQVMKLGNPEIARRLLLRGANPDLKDRTGFPVIHDAARAGFLDTLQTLLEFQADVNIEDNEGNLPLHLAAKEGHLRVVEFLVKHTASNVGHRNHKGDTACDLARLYGRNEVVSLMQANGAGGATNLQ [A72P]
